Test results reported in US20250388633A1.

B1: SEQ ID NO: 57 (peptide)
peptide: SSVKSQPSRVHHSPISILFI
B2: SEQ ID NO: 59 (peptide)
peptide: VVPKPSSAPTQLEPISILYL
B3: SEQ ID NO: 58 (peptide)
peptide: ASASPSSVSQDLSSLSILFF
B4: SEQ ID NO: 63 (peptide)
peptide: NDEGLESVPTEERSVKVAKV
B5: SEQ ID NO: 56 (peptide)
peptide: NDEGLESVPTEESAISMLYL
B6: SEQ ID NO: 62 (peptide)
peptide: SSVKSQPSRVHHKPLSMLYV
B7: SEQ ID NO: 54 (peptide)
peptide: SIPKASSTPTELSPINMLYF

Molecular target: growth factor receptors
Assay: cell-based or functional assay

Row | p-Smad1/5/8 (%) (quantification of western blots of phospho-smad1/5/8) | Binder
1 | 41% | B1
2 | 29% | B2
3 | 37% | B3
4 | 34% | B4
5 | 28% | B5
6 | 31% | B6
7 | 32% | B7
